3 molecules from patent US20110015139A1 (HE HENRY M JACKSON FOUNDATION FOR THE ADVANCEMENT OF …, published 2011) can be followed below.

For this experiment, the target named is amyloid beta (Aβ) peptide, incorporated in membranes as the Aβ channel. The experiment in a line: cell-based or functional assay.

Take SGYEVHH [NA4]: the “EC50 of protection of PC12 cells from Aβ cytotoxicity (LDH release), as a multiple of the EC50 of NAHIS04” value fell in the range of 2 to 3 times.

With EVHHQKL [NA7], the “EC50 of protection of PC12 cells from Aβ cytotoxicity (LDH release), as a multiple of the EC50 of NAHIS04” value lay in the range of 2 to 3 times.

Ac-HHHH-NH2 [NAHIS04 (Ac-His-His-His-His-CONH2)]: the “concentration required for 50% protection (EC50) of PC12 cells from Aβ cytotoxicity, LDH release assay, 3 days” value is less than 1 µM and the “speed of 50% reduction of the flow of ionic charges, relative to NAHIS02” value is 8 fold.
